In the supplement of paper PMC9112550, “Optimization of the antimicrobial peptide Bac7 by deep mutational scanning” (BMC Biology, 2022):

Tested on: Escherichia coli TOP10
Assay: shrunken log2 fold change of peptide-encoding DNA abundance (4.5 h post-induction vs induction); higher = less antimicrobial activity (less host growth inhibition)
Conditions: time post-induction: 4.5 h; library: site-saturation at positions 5, 18, 19, 20
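Further: peptides expressed intracellularly from a pBAD plasmid library in pooled LB shake-flask culture, induced with 0.3% L-arabinose, DNA abundance read by NGS, three biological replicates, DESeq2 with apeglm shrinkage.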

RRIRDRPPRLPRPRPRPFATPRP
shrunken log2 fold change: 0.271

RRIRNRPPRLPRPRPRPKARPRP
shrunken log2 fold change: -0.00166

RRIRLRPPRLPRPRPRPLCWPRP
shrunken log2 fold change: 0.487

RRIRYRPPRLPRPRPRPCSGPRP
shrunken log2 fold change: -0.0198

RRIRQRPPRLPRPRPRPEFVPRP
shrunken log2 fold change: 0.031

RRIRVRPPRLPRPRPRPDCFPRP
shrunken log2 fold change: 0.0303

RRIRFRPPRLPRPRPRPDRTPRP
shrunken log2 fold change: -0.0783

RRIRQRPPRLPRPRPRPTLEPRP
shrunken log2 fold change: 0.0818

RRIRPRPPRLPRPRPRPLLHPRP
shrunken log2 fold change: 0.0277

RRIRVRPPRLPRPRPRPQRDPRP
shrunken log2 fold change: -0.171

RRIRERPPRLPRPRPRPAMWPRP
shrunken log2 fold change: 0.293

RRIRLRPPRLPRPRPRPISIPRP
shrunken log2 fold change: 0.111

RRIRCRPPRLPRPRPRPMERPRP
shrunken log2 fold change: -0.00088

RRIRGRPPRLPRPRPRPQDVPRP
shrunken log2 fold change: 0.0766

RRIRNRPPRLPRPRPRPMFHPRP
shrunken log2 fold change: -0.678

RRIRVRPPRLPRPRPRPFMKPRP
shrunken log2 fold change: -0.737

RRIRGRPPRLPRPRPRPWWAPRP
shrunken log2 fold change: 0.193

RRIRLRPPRLPRPRPRPLVYPRP
shrunken log2 fold change: -0.335

RRIRFRPPRLPRPRPRPAKTPRP
shrunken log2 fold change: -0.0138

RRIRSRPPRLPRPRPRPSQQPRP
shrunken log2 fold change: 0.0577

RRIRGRPPRLPRPRPRPFVLPRP
shrunken log2 fold change: -0.000308

RRIRQRPPRLPRPRPRPVFTPRP
shrunken log2 fold change: -0.217

RRIRRRPPRLPRPRPRPDFSPRP
shrunken log2 fold change: -0.18

RRIRVRPPRLPRPRPRPQYTPRP
shrunken log2 fold change: -0.526

RRIRMRPPRLPRPRPRPMYMPRP
shrunken log2 fold change: 0.0751

RRIRLRPPRLPRPRPRPTYFPRP
shrunken log2 fold change: -0.451

RRIRSRPPRLPRPRPRPMCWPRP
shrunken log2 fold change: 0.318

RRIRIRPPRLPRPRPRPASPPRP
shrunken log2 fold change: -0.0763

RRIRFRPPRLPRPRPRPWDWPRP
shrunken log2 fold change: 0.149

RRIRHRPPRLPRPRPRPAGIPRP
shrunken log2 fold change: -0.282

RRIRMRPPRLPRPRPRPKHPPRP
shrunken log2 fold change: 0.612

RRIRVRPPRLPRPRPRPQWCPRP
shrunken log2 fold change: 0.0102

RRIRFRPPRLPRPRPRPAKAPRP
shrunken log2 fold change: 0.26

RRIRFRPPRLPRPRPRPQCMPRP
shrunken log2 fold change: 0.000372

RRIRYRPPRLPRPRPRPDVDPRP
shrunken log2 fold change: -0.0562

RRIRFRPPRLPRPRPRPLERPRP
shrunken log2 fold change: -0.0153

RRIRPRPPRLPRPRPRPTDRPRP
shrunken log2 fold change: 0.121

RRIRNRPPRLPRPRPRPYTEPRP
shrunken log2 fold change: -0.695

RRIRKRPPRLPRPRPRPGRAPRP
shrunken log2 fold change: 0.786

RRIRARPPRLPRPRPRPADYPRP
shrunken log2 fold change: 0.177

RRIRCRPPRLPRPRPRPNPYPRP
shrunken log2 fold change: -0.44

RRIRARPPRLPRPRPRPIFWPRP
shrunken log2 fold change: 0.305

RRIRVRPPRLPRPRPRPFNLPRP
shrunken log2 fold change: -0.103

RRIRTRPPRLPRPRPRPLWWPRP
shrunken log2 fold change: 0.546

RRIRMRPPRLPRPRPRPQTIPRP
shrunken log2 fold change: 0.414

RRIRGRPPRLPRPRPRPDAAPRP
shrunken log2 fold change: 3.73

RRIRMRPPRLPRPRPRPMWIPRP
shrunken log2 fold change: -0.217

RRIRNRPPRLPRPRPRPVINPRP
shrunken log2 fold change: -0.512

RRIRARPPRLPRPRPRPSMSPRP
shrunken log2 fold change: -0.105

RRIRSRPPRLPRPRPRPTNRPRP
shrunken log2 fold change: -0.362

RRIRIRPPRLPRPRPRPKQTPRP
shrunken log2 fold change: -0.0291

RRIRHRPPRLPRPRPRPPVYPRP
shrunken log2 fold change: 0.118

RRIRQRPPRLPRPRPRPFVTPRP
shrunken log2 fold change: -1.13

RRIRGRPPRLPRPRPRPPRTPRP
shrunken log2 fold change: 1.33

RRIRNRPPRLPRPRPRPQDSPRP
shrunken log2 fold change: -0.238

RRIRHRPPRLPRPRPRPKACPRP
shrunken log2 fold change: -0.01

RRIRVRPPRLPRPRPRPFVYPRP
shrunken log2 fold change: -0.439

RRIRTRPPRLPRPRPRPPEQPRP
shrunken log2 fold change: 0.151

RRIRSRPPRLPRPRPRPEGPPRP
shrunken log2 fold change: 0.114

RRIRVRPPRLPRPRPRPHFMPRP
shrunken log2 fold change: 1.55

RRIRHRPPRLPRPRPRPEVPPRP
shrunken log2 fold change: -0.00339

RRIRDRPPRLPRPRPRPLEFPRP
shrunken log2 fold change: -0.158

RRIRWRPPRLPRPRPRPDAFPRP
shrunken log2 fold change: 0.0334

RRIRLRPPRLPRPRPRPYMWPRP
shrunken log2 fold change: -1.05

RRIRFRPPRLPRPRPRPQSAPRP
shrunken log2 fold change: 0.0283

RRIRMRPPRLPRPRPRPKPEPRP
shrunken log2 fold change: 0.0854

RRIRDRPPRLPRPRPRPIVQPRP
shrunken log2 fold change: -0.267

RRIRVRPPRLPRPRPRPGPVPRP
shrunken log2 fold change: 0.287

RRIRKRPPRLPRPRPRPINPPRP
shrunken log2 fold change: 0.0583

RRIRGRPPRLPRPRPRPGPIPRP
shrunken log2 fold change: 0.619

RRIRQRPPRLPRPRPRPLARPRP
shrunken log2 fold change: 0.26

RRIRARPPRLPRPRPRPFRWPRP
shrunken log2 fold change: -0.0369

RRIRYRPPRLPRPRPRPFLIPRP
shrunken log2 fold change: -1.15

RRIRWRPPRLPRPRPRPNRKPRP
shrunken log2 fold change: -0.239

RRIRERPPRLPRPRPRPIFPPRP
shrunken log2 fold change: -0.367

RRIRVRPPRLPRPRPRPSGDPRP
shrunken log2 fold change: -0.251

RRIRNRPPRLPRPRPRPWIMPRP
shrunken log2 fold change: -1.05

RRIRARPPRLPRPRPRPSEEPRP
shrunken log2 fold change: 0.452

RRIRERPPRLPRPRPRPVMWPRP
shrunken log2 fold change: 0.0878

RRIRKRPPRLPRPRPRPANKPRP
shrunken log2 fold change: 0.142

RRIRWRPPRLPRPRPRPGKNPRP
shrunken log2 fold change: 0.13

RRIRQRPPRLPRPRPRPMVGPRP
shrunken log2 fold change: -0.00963

RRIRHRPPRLPRPRPRPARLPRP
shrunken log2 fold change: 0.568

RRIRERPPRLPRPRPRPGIKPRP
shrunken log2 fold change: -0.587

RRIRARPPRLPRPRPRPQEGPRP
shrunken log2 fold change: -0.0912

RRIRKRPPRLPRPRPRPGAWPRP
shrunken log2 fold change: 0.364

RRIRPRPPRLPRPRPRPLWPPRP
shrunken log2 fold change: 0.325

RRIRCRPPRLPRPRPRPFADPRP
shrunken log2 fold change: -0.45

RRIRNRPPRLPRPRPRPRTHPRP
shrunken log2 fold change: -0.184

RRIRERPPRLPRPRPRPISAPRP
shrunken log2 fold change: -0.214

RRIRSRPPRLPRPRPRPHSGPRP
shrunken log2 fold change: 0.0329

RRIRMRPPRLPRPRPRPEEPPRP
shrunken log2 fold change: 0.0975

RRIRQRPPRLPRPRPRPRWYPRP
shrunken log2 fold change: -0.172

RRIRVRPPRLPRPRPRPWHLPRP
shrunken log2 fold change: -0.191

RRIRHRPPRLPRPRPRPNCYPRP
shrunken log2 fold change: -0.0056

RRIRIRPPRLPRPRPRPQWQPRP
shrunken log2 fold change: -0.182

RRIRCRPPRLPRPRPRPIGVPRP
shrunken log2 fold change: 0.0129

RRIRNRPPRLPRPRPRPQGKPRP
shrunken log2 fold change: 0.0697

RRIRFRPPRLPRPRPRPIEAPRP
shrunken log2 fold change: -0.181

RRIRCRPPRLPRPRPRPVETPRP
shrunken log2 fold change: 0.0672

RRIRTRPPRLPRPRPRPEPSPRP
shrunken log2 fold change: 0.534

RRIRDRPPRLPRPRPRPQIMPRP
shrunken log2 fold change: 0.0478

RRIRVRPPRLPRPRPRPSAKPRP
shrunken log2 fold change: -0.354

RRIRYRPPRLPRPRPRPHKRPRP
shrunken log2 fold change: -0.163

RRIRWRPPRLPRPRPRPSQLPRP
shrunken log2 fold change: -0.375

RRIRKRPPRLPRPRPRPRFTPRP
shrunken log2 fold change: 0.158

RRIRYRPPRLPRPRPRPWDSPRP
shrunken log2 fold change: -0.00191

RRIRIRPPRLPRPRPRPVCGPRP
shrunken log2 fold change: -0.0405

RRIRHRPPRLPRPRPRPPPVPRP
shrunken log2 fold change: 0.658

RRIRLRPPRLPRPRPRPYHAPRP
shrunken log2 fold change: -0.186

RRIRPRPPRLPRPRPRPAQRPRP
shrunken log2 fold change: 0.104

RRIRHRPPRLPRPRPRPIPSPRP
shrunken log2 fold change: -0.274

RRIRMRPPRLPRPRPRPETQPRP
shrunken log2 fold change: 0.359

RRIRERPPRLPRPRPRPAYDPRP
shrunken log2 fold change: -0.394

RRIRWRPPRLPRPRPRPEQCPRP
shrunken log2 fold change: -0.0195

RRIRSRPPRLPRPRPRPWHGPRP
shrunken log2 fold change: -0.00232

RRIRWRPPRLPRPRPRPQFSPRP
shrunken log2 fold change: 0.053

RRIRGRPPRLPRPRPRPWFGPRP
shrunken log2 fold change: -0.05

RRIRQRPPRLPRPRPRPYNHPRP
shrunken log2 fold change: -0.047

RRIRKRPPRLPRPRPRPYLHPRP
shrunken log2 fold change: -0.31

RRIRRRPPRLPRPRPRPCHVPRP
shrunken log2 fold change: -0.238

RRIRSRPPRLPRPRPRPDESPRP
shrunken log2 fold change: -0.264

RRIRQRPPRLPRPRPRPIANPRP
shrunken log2 fold change: -0.0128

RRIRRRPPRLPRPRPRPAWRPRP
shrunken log2 fold change: 0.504

RRIRFRPPRLPRPRPRPNFQPRP
shrunken log2 fold change: -0.272

RRIRKRPPRLPRPRPRPFWPPRP
shrunken log2 fold change: 0.537

RRIRIRPPRLPRPRPRPPGYPRP
shrunken log2 fold change: 0.0184

RRIRLRPPRLPRPRPRPCNLPRP
shrunken log2 fold change: 0.034

RRIRSRPPRLPRPRPRPLGTPRP
shrunken log2 fold change: -0.216

RRIRWRPPRLPRPRPRPNNPPRP
shrunken log2 fold change: -0.631

RRIRGRPPRLPRPRPRPQVKPRP
shrunken log2 fold change: 0.564

RRIRGRPPRLPRPRPRPVKEPRP
shrunken log2 fold change: 0.604

RRIRERPPRLPRPRPRPILDPRP
shrunken log2 fold change: -0.209

RRIRLRPPRLPRPRPRPSCYPRP
shrunken log2 fold change: -0.164

RRIRRRPPRLPRPRPRPEYLPRP
shrunken log2 fold change: -0.0446

RRIRLRPPRLPRPRPRPGPDPRP
shrunken log2 fold change: 0.953

RRIRYRPPRLPRPRPRPAKKPRP
shrunken log2 fold change: 0.0499

RRIRLRPPRLPRPRPRPAQDPRP
shrunken log2 fold change: 0.392

RRIRIRPPRLPRPRPRPCKNPRP
shrunken log2 fold change: -0.299

RRIRARPPRLPRPRPRPRTNPRP
shrunken log2 fold change: 0.329

RRIRIRPPRLPRPRPRPWMIPRP
shrunken log2 fold change: -0.0493

RRIRERPPRLPRPRPRPAQTPRP
shrunken log2 fold change: 0.0281

RRIRCRPPRLPRPRPRPVYYPRP
shrunken log2 fold change: -0.363

RRIRPRPPRLPRPRPRPYPHPRP
shrunken log2 fold change: -0.237

RRIRVRPPRLPRPRPRPSNDPRP
shrunken log2 fold change: -0.244

RRIRMRPPRLPRPRPRPSYWPRP
shrunken log2 fold change: 0.0657

RRIRGRPPRLPRPRPRPQADPRP
shrunken log2 fold change: 0.43

RRIRERPPRLPRPRPRPDLLPRP
shrunken log2 fold change: -0.183

RRIRLRPPRLPRPRPRPRHPPRP
shrunken log2 fold change: 0.163

RRIRVRPPRLPRPRPRPVLRPRP
shrunken log2 fold change: 0.187
